In patent US20260209357A1 (CSL INNOVATION, published 2026):
Changes are numbered by the printed parent chain. In names and notes the source's numbering stands. Values belong to the binder of their own block, whether it stands above or below them.

Tests used:
[1] = molecular target: T1, biotinylated human FcRn/β2m (human, UniProt P55899 24-297; P61769 21-119, biotinylated (Biotin-NHS amine chemistry or BirA biotin ligase; site not stated)); assay: SPR, biotinylated FcRn/β2m on streptavidin or neutravidin chip, antagonist as analyte (avidity conditions), pH 7.3; column head printed ka (1/s)
T1 construct: The soluble human FcRn/β2m after biotinylation, tethered on streptavidin or neutravidin chips; also called surface-captured biotinylated human FcRn complexed with β2m

[2] = molecular target: T1, biotinylated human FcRn/β2m; assay: SPR, biotinylated FcRn/β2m on streptavidin or neutravidin chip, antagonist as analyte (avidity conditions), pH 7.3
[3] = molecular target: T2, soluble recombinant human FcRn/β2m (human, UniProt P55899 24-297; P61769 21-119); assay: SPR, ligand on surface, soluble HuFcRn/b2m as analyte; pH not printed with the table (paragraph 351 speaks of pH 6.0)
T2 construct: About 42 kDa; also called HuFcRn/b2m; huFcRn/b2m

[4] = molecular target: T1, biotinylated human FcRn/β2m; assay: SPR, surface-bound huFcRn/b2m, pH 7.3
Human IgG1 Fc (huG1Fc) = molecular target: T3, Human IgG1 Fc (huG1Fc) (human, UniProt P0DOX5 218-449 = IgG part); assay: SPR, ligand directly immobilised, soluble Fcγ receptor as analyte, pH 7.3
T3 construct: Wild-type Fc control, directly immobilised on the chip; also called G1Fc homodimer

koff [1]: 0.000532 s⁻¹ | Kd [2]: 1.1 nM | kon [2]: 492000 M⁻¹ s⁻¹ | Kd [3]: 16.9 nM | koff [3]: 0.00525 s⁻¹ | kon [3]: 311000 M⁻¹ s⁻¹
B1: huG1FcYPY (other)
chain: EPKSCDKTHTCPPCPAPELLGGPSVFLFPPKPKDTLYISRTPEVTCVVVDVSHEDPEVKFNWYVDGVEVHNAKTKPREEQYNSTYRVVSVLTPLHQDWLNGKEYKCKVSNKALPAPIEKTISKAKGQPREPQVYTLPPSRDELTKNQVSLTCLVKGFYPSDIAVEWESNGQPENNYKTTPPVLDSDGSFFLYSKLTVDKSRWQQGNVFSCSVMHEALHYHYTQKSLSLSPGK
notes: Fc fragment alone; also called G1FcYPY homodimer

koff [1]: 0.00236 s⁻¹ | Kd [2]: 2.4 nM | kon [2]: 970000 M⁻¹ s⁻¹
B2: huG1FcYTEKF (other)
chain: B1 chain with S39T, T41E, P93V, H218K, Y219F
notes: Human IgG1 Fc with M252Y, S254T, T256E, H433K, N434F, modelled on efgartigimod with five more N-terminal residues (EPKSC); Fc dimer is to be expected; also called benchmark molecule

Kd [4]: 2.3 nM
B3: Vyvgart (other)
chain: DKTHTCPPCPAPELLGGPSVFLFPPKPKDTLYITREPEVTCVVVDVSHEDPEVKFNWYVDGVEVHNAKTKPREEQYNSTYRVVSVLTVLHQDWLNGKEYKCKVSNKALPAPIEKTISKAKGQPREPQVYTLPPSRDELTKNQVSLTCLVKGFYPSDIAVEWESNGQPENNYKTTPPVLDSDGSFFLYSKLTVDKSRWQQGNVFSCSVMHEALKFHYTQKSLSLSPGK
notes: also called Efgartigimod; commercially available Vyvgart product

Kd (Human IgG1 Fc (huG1Fc)): 0.086 nM
B4: human FcγRI (CD64) (receptor, UniProt P12314 16-292, looked up)
chain: QVDTTKAVITLQPPWVSVFQEETVTLHCEVLHLPGSSSTQWFLNGTATQTSTPSYRITSASVNDSGEYRCQRGLSGRSDPIQLEIHRGWLLLQVSSRVFTEGEPLALRCHAWKDKLVYNVLYYRNGKAFKFFHWNSNLTILKTNISHNGTYHCSGMGKHRYTSAGISVTVKELFPAPVLNASVTSPLLEGNLVTLSCETKLLLQRPGLQLYFSFYMGSKTLRGRNTSSEYQILTARREDSGLYWCEAATEDGNVLKRSPELELQVLGLQLPTPVWFH
notes: extracellular domain; also called FcyRI (CD64)
